# Measurements as given in US20200199231A1 (Genmab, published 2020).
# Read-outs that look alike come from different tables or passages of the source.
# B1: IgG1-7D8-FEAR (antibody, V domains shown)
# VH: EVQLVESGGGLVQPDRSLRLSCAASGFTFHDYAMHWVRQAPGKGLEWVSTISWNSGTIGYADSVKGRFTISRDNAKNSLYLQMNSLRAEDTALYYCAKDIQYGNYYYGMDVWGQGTTVTVSS
# VL: EIVLTQSPATLSLSPGERATLSCRASQSVSSYLAWYQQKPGQAPRLLIYDASNRATGIPARFSGSGSGTDFTLTISSLEPEDFAVYYCQQRSNWPITFGQGTRLEIK
# Tests used:
# human CD20 [1] = biological target: T1, human CD20 (human, UniProt P11836 1-297); assay: flow cytometry on Daudi cells (CD20-positive, CD3-negative); PE-conjugated goat anti-human IgG F(ab')2; median FI (PE)
# T1 construct: whole, on cells; On Daudi and other human B cell lines, on human B cells in blood, or transiently expressed in HEK293F cells (construct pEE12.4CD20HS-GA); also called wild type CD20; WT CD20
# T1 sequence (looked up): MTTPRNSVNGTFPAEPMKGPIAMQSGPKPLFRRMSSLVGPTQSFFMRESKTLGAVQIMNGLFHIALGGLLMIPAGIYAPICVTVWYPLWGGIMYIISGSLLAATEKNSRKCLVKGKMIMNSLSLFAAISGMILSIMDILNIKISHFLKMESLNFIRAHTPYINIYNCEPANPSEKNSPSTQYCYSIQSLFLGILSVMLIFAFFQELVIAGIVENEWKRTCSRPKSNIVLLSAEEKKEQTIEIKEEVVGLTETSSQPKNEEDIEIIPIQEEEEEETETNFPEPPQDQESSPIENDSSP
# Method: (§1) In addition to the non-activating mutations, L234F, L235E, D265A, on both arms, the bispecific antibody contained an F405L mutation on one arm and a K409R mutation on the other arm.
# (§2) Cells (1×10⁵ cells/well) were incubated in polystyrene 96-well round-bottom plates (Greiner bio-one, cat. no. 650101) with serial dilutions of antibodies (range 0.041 to 30 μg/mL in 3-fold dilution steps [A-E] and 0.00061 to 10 μg/mL in 4-fold dilution steps [F-I]) in 100 μL PBS/0.1% BSA/0.02% azide (from here designated as staining buffer) at 4° C. for 30 min.
# (§3) After washing twice in staining buffer, cells were incubated in 50 μL secondary antibody at 4° C. for 30 min. As a secondary antibody, R-Phycoerythrin (PE)-conjugated goat-anti-human IgG F(ab′)₂ (cat. no. 109-116-098, Jackson ImmunoResearch Laboratories, Inc., West Grove, Pa.) diluted 1:200 in staining buffer, was used for all experiments. Next, cells were washed twice in staining buffer, re-suspended in 30 μL staining buffer and analyzed on an iQue screener (Intellicyt Corporation, USA) (for FIG. 1A-E) or re-suspended in 100 μL staining buffer and analyzed on a FACSCANTOII (BD Biosciences) (FIG. 1F-I). Binding curves were analyzed using non-linear regression (sigmoidal dose-response with variable slope) using GraphPad Prism V75.04 software (GraphPad Software, San Diego, Calif., USA).
# human CD20 [2] = biological target: T1, human CD20; assay: as above; remark: listed apart in the source
# Method: as §1, §2, §3
binder,measurement,setting,value
B1,EC50 (read off the curve),human CD20 [1],~0.3 µg/mL
same,EC50 (read off the curve),human CD20 [2],~0.3 µg/mL
